Test [1] concerns the target T1, Human OX40 ECD-AFH (human).
T1 construct: ECD'; entry includes the C-terminal tags; also called OXF003; Human OX40 ECD-avi-flag-his
T1 chain: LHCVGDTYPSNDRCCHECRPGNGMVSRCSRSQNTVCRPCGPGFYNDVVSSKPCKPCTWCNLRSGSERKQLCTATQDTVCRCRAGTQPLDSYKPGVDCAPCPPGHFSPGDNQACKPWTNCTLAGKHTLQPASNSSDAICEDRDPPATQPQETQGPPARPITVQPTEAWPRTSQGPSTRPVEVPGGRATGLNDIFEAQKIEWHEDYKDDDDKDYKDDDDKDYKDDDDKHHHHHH
The test is described as follows: SPR (Biacore 8K), construct captured, monovalent ECD. In general terms: SPR reads the build-up and loss of mass on a sensor chip optically.

The target in test [2] is T2, Cyno 4-1BB ECD-AFH (cynomolgus monkey).
T2 construct: entry includes the tags; also called FOB004; Cyno CD137 ECD-avi-flag-his
T2 chain: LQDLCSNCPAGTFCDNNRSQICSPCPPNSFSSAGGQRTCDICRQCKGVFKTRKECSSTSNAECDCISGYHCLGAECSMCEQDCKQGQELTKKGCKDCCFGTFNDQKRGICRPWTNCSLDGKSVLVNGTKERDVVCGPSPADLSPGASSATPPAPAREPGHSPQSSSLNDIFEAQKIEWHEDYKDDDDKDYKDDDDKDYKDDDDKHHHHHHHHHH
The test is described as above.

Test [3] deals with T3, Cyno OX40-AFH (cynomolgus monkey).
T3 construct: entry includes the tags; also called OXF005; cyno OX40 ECD
T3 chain: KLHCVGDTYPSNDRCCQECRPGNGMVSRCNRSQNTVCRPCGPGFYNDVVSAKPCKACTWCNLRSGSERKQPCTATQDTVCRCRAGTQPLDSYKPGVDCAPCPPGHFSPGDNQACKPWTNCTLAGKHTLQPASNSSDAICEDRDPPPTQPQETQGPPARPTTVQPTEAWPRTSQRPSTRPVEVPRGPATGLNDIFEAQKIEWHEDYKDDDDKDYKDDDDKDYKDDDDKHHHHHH
The test is described as above.

The target of test [4] is T4, Full-length Cyno OX40 (cynomolgus monkey, UniProt P43489 29-277 (human entry)).
T4 construct: on CHO-K1SV cells; also called OXF004; cynomolgus OX40
T4 chain: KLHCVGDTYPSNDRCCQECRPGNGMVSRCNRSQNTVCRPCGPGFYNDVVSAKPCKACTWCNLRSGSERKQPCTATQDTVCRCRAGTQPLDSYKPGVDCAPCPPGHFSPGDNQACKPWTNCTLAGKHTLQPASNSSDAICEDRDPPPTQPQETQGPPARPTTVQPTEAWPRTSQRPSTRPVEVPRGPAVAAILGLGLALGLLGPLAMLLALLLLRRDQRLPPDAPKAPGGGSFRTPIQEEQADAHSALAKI
The test is described as follows: flow cytometry on CHOK1SV cells transfected with cynomolgus OX40, goat anti-human Fc secondary antibody, MFI (Mean). The protocol: Serial dilutions of ADAPTIR™ constructs were incubated with transfected target cells and subsequently labelled with a fluorescently-conjugated goat-a-human Fc secondary antibody. […] (See Example 25.)

Test [5] has as its target T4, Full-length Cyno OX40. The test is described as above. The protocol:
FIGS. 12A-12D show the binding of anti-4-1BB x anti-OX40 constructs, with additional humanization in 4-1BB and altered orientations of binding domains, human (12A) or cynomolgus (12C) 4-1BB-expressing Jurkat cells or human (12B) or cynomolgus (12D) OX40-expressing CHOK1SV cells. Serial dilutions of ADAPTIR™ constructs were incubated with transfected cells and subsequently labelled with a fluorescently-conjugated goat-a-human Fc secondary antibody. […] (See Example 19.)
Binding studies were performed using the flow cytometry-based staining procedures described above.

Test [6] has as its target T5, Fc gamma receptor RI (human, UniProt P12314 16-288).
T5 construct: also called FcγRI
Briefly: SPR, construct immobilized, receptor injected at 100 nM. The protocol:
Fcγ receptor binding to bispecific proteins was measured by Surface Plasmon Resonance on a Biacore 8K instrument at room temperature. Bispecific proteins with modified Fc regions to reduce binding to Fcγ receptors were directly immobilized on the surface of a CM5 sensor chip to a surface density of 4000 RU. A bispecific ADAPTIR™ protein with a wild type Fc was similarly immobilized to the surface as a positive control and used as a comparator to evaluate the reduction in binding resulting from changes incorporated into the Fc region amino acid sequence. Fcγ receptors (purchased from R&D Systems) were diluted to either 100 nM (FcγRI) or 2 μM (all other Fcγ receptors) in HBS-EP+ buffer before injecting over the surface of the prepared sensor chip at 30 μL/min for 60 seconds. Maximum RU values during association phase of each injection were used to compare the extent of binding of the modified Fc to wild type value and are reported in Table 17 below.

Like-named read-outs stand apart in the source and are kept apart here. Some results are limits rather than exact numbers.

T5 sequence (P12314 16-288 limits assumed): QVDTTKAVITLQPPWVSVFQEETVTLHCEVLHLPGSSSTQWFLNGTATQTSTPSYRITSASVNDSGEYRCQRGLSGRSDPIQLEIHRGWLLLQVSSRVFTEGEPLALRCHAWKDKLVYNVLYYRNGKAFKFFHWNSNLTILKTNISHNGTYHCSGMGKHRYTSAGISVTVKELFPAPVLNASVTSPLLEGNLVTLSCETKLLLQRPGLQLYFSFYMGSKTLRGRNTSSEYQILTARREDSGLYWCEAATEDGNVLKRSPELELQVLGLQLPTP

B1: FXX01102 (bispecific antibody)
chain: EVQLVQSGAEVKKPGASVKVSCKASGYTFTSYWMNWVRQAPGQGLEWMGNIYPSGGSTNYAQKFQGRVTMTVDTSTSTVYMELSSLRSEDTAVYYCASFSDGYYAYAMDYWGQGTLVTVSSGGGGSGGGGSGGGGSGGGGSEIVMTQSPATLSLSPGERATLSCRASQSVSSYLNWYQQKPGQAPRLLIYYASRRHTGIPARFSGSGSGTDFTLTISSLQPEDFAVYYCQQGYNLPYTFGQGTKVEIKEPKSSDKTHTCPPCPAPPAAAPSVFLFPPKPKDTLMISRTPEVTCVVVDVSHEDPEVKFNWYVDGVEVHNAKTKPREEQYNSTYRVVSVLTVLHQDWLNGKEYKCAVSNKALPAPIEKTISKAKGQPREPQVYTLPPSRDELTKNQVSLTCLVKGFYPSDIAVEWESNGQPENNYKTTPPVLDSDGSFFLYSKLTVDKSRWQQGNVFSCSVMHEALHNHYTQKSLSLSPGGGGSPSSYVLTQPPSVSVAPGKTARITCGGNNIGSKSVNWFQQKPGQAPVLVVYDDSGRPSGIPERFSGSTSGNTATLTISRVEAGDEADYYCQVWDSSSDHVVFGGGTKLTVLGGGGSGGGGSGGGGSGGGGSQVQLVESGGGVVQPGRSLRLSCAASGFTLSYYGMHWVRQAPGKGLEWVAAISHDGSDKYYADSVKGRFTISRDNSKNRLYLQMNSLRAEDTAVYYCSNDQFDPWGQGTLVTVSSR
notes: ADAPTIR anti-4-1BB (HL) x anti-OX40 with Q17K and T86R; PAA (del) Fc; also called FX01102
In general, Kd refers to the concentration at which binding is half-saturated. The term koff denotes a measure of how fast the partners let go of each other. Read a low koff as a long-lived complex. For orientation: kon means the rate constant with which the complex forms. A high value points to faster complex formation. By EC50 (read off the curve) is commonly meant the midpoint of the concentration-response curve. Low readings indicate higher potency in that assay, high ones lower potency in that assay. B1: the Kd is < 1 nM in test [1], 75 nM in test [2] and < 1 nM in test [3]. The koff in test [1] amounted to 0.00025 s⁻¹; in test [2] it was 0.0074 s⁻¹; in test [3] it was 0.00023 s⁻¹. In addition, the kon in test [1] came out at 1e+06 M⁻¹ s⁻¹; in test [2], 98000 M⁻¹ s⁻¹; in test [3], 1.1e+06 M⁻¹ s⁻¹. In addition, the figures for the “EC50 (read off the curve)” value in test [4] and in test [5] were 1 to 2 nM and ~0.8 nM, respectively.

B2: FXX01111 (bispecific antibody)
chain: EVQLVQSGAEVKKPGASVKVSCKASGYTFTSYWMNWVRQAPGQGLEWMGNIYPSGGSTNYAQKFQGRVTMTVDTSTSTVYMELSSLRSEDTAVYYCASFSDGYYAYAMDYWGQGTLVTVSSGGGGSGGGGSGGGGSGGGGSEIVMTQSPATLSLSPGERATLSCRASQSVSSYLNWYQQKPGQAPRLLIYYASRRHTGIPARFSGSGSGTDFTLTISSLQPEDFAVYYCQQGYNLPYTFGQGTKVEIKEPKSSDKTHTCPPCPAPPAAAPSVFLFPPKPKDTLMISRTPEVTCVVVDVSHEDPEVKFNWYVDGVEVHNAKTKPREEQYNSTYRVVSVLTVLHQDWLNGKEYKCAVSNKALPAPIEKTISKAKGQPREPQVYTLPPSRDELTKNQVSLTCLVKGFYPSDIAVEWESNGQPENNYKTTPPVLDSDGSFFLYSKLTVDKSRWQQGNVFSCSVMHEALHNHYTQKSLSLSPGGGGSPSSYVLTQPPSVSVAPGQTARITCGGNNIGSKSVNWFQQKPGQAPVLVVYDDSGRPSGVPNRFSGSTSGNTATLTISRVEAGDEADYYCQVWDSSSDHVVFGGGTKLTVLGGGGSGGGGSGGGGSGGGGSQVQLVESGGGVVQPGRSLRLSCAASGFTLSYYGMHWVRQAPGKGLEWVAAISHDGSDKYYADSVKGRFTISRDNSKNTLYLQMNSLRAEDTAVYYCSNDQFDPWGQGTLVTVSSR
notes: ADAPTIR anti-4-1BB x anti-OX40, pI variant; PAA (del) Fc
In the case of B2, in test [1], the Kd was < 1 nM, the koff worked out at 0.00038 s⁻¹ and the kon was 930000 M⁻¹ s⁻¹. In test [2], this molecule yielded a Kd of 81 nM, a koff of 0.008 s⁻¹ and a kon of 99000 M⁻¹ s⁻¹. Besides, in test [3], the Kd is < 1 nM, the koff came to 0.00029 s⁻¹ and the on-rate constant (kon) turned out to be 1.1e+06 M⁻¹ s⁻¹. In addition, the “EC50 (read off the curve)” value in test [4] is 1 to 2 nM. Besides, the “Max RU value during association” value in test [6] was determined as 0 RU.

B3: FXX01119 (bispecific antibody)
chain: EVQLVQSGAEVKKPGASVKVSCKASGYTFTSYWMNWVRQAPGQGLEWMGNIYPSGGSTNYAQKFQGRVTMTVDTSTSTVYMELSSLRSEDTAVYYCASFSDGYYAYAMDYWGQGTLVTVSSGGGGSGGGGSGGGGSGGGGSEIVMTQSPATLSLSPGERATLSCRASQSVSSYLNWYQQKPGQAPRLLIYYASRRHTGIPARFSGSGSGTDFTLTISSLQPEDFAVYYCQQGYNLPYTFGQGTKVEIKEPKSSDKTHTCPPCPAPPAAAPSVFLFPPKPKDTLMISRTPEVTCVVVDVSHEDPEVKFNWYVDGVEVHNAKTKPREEQYNSTYRVVSVLTVLHQDWLNGKEYKCAVSNKALPAPIEKTISKAKGQPREPQVYTLPPSRDELTKNQVSLTCLVKGFYPSDIAVEWESNGQPENNYKTTPPVLDSDGSFFLYSKLTVDKSRWQQGNVFSCSVMHEALHNHYTQKSLSLSPGGGGSPSSYVLTQPPSVSVAPGKTARITCGGNNIGSKSVNWFQQKPGQAPVLVVYDDSGRPSGVPNRFSGSTSGNTATLTISRVEAGDEADYYCQVWDSSSDHVVFGGGTKLTVLGGGGSGGGGSGGGGSGGGGSQVQLVESGGGVVQPGRSLRLSCAASGFTLSYYGMHWVRQAPGKGLEWVAAISHDGSDKYYADSVKGRFTISRDNSKNRLYLQMNSLRAEDTAVYYCSNDQFDPWGQGTLVTVSSR
notes: as for B2
In test [1], B3 came in with a dissociation constant (Kd) of 0.3 nM, a koff of 0.00031 s⁻¹ and a kon of 920000 M⁻¹ s⁻¹. In test [2], binding was characterised by a dissociation constant (Kd) of 79 nM, the koff came out at 0.0075 s⁻¹ and the kon worked out at 95000 M⁻¹ s⁻¹. In test [3], this molecule displayed a Kd of 0.2 nM, an off-rate constant (koff) of 0.00023 s⁻¹ and a kon of 1e+06 M⁻¹ s⁻¹. In test [4], the “EC50 (read off the curve)” value was in the range of 1 to 2 nM.

B4: FXX01115 (bispecific antibody)
chain: EVQLVQSGAEVKKPGASVKVSCKASGYTFTSYWMNWVRQAPGQGLEWMGNIYPSGGSTNYAQKFQGRVTMTVDTSTSTVYMELSSLRSEDTAVYYCASFSDGYYAYAMDYWGQGTLVTVSSGGGGSGGGGSGGGGSGGGGSEIVMTQSPATLSLSPGERATLSCRASQSVSSYLNWYQQKPGQAPRLLIYYASRRHTGIPARFSGSGSGTDFTLTISSLQPEDFAVYYCQQGYNLPYTFGQGTKVEIKEPKSSDKTHTCPPCPAPPAAAPSVFLFPPKPKDTLMISRTPEVTCVVVDVSHEDPEVKFNWYVDGVEVHNAKTKPREEQYNSTYRVVSVLTVLHQDWLNGKEYKCAVSNKALPAPIEKTISKAKGQPREPQVYTLPPSRDELTKNQVSLTCLVKGFYPSDIAVEWESNGQPENNYKTTPPVLDSDGSFFLYSKLTVDKSRWQQGNVFSCSVMHEALHNHYTQKSLSLSPGGGGSPSSYVLTQPPSVSVAPGQTARITCGGNNIGSKSVNWFQQKPGQAPVLVVYDDSGRPSGVPNRFSGSTSGNTATLTISRVEAGDEADYYCQVWDSSSDHVVFGGGTKLTVLGGGGSGGGGSGGGGSGGGGSQVQLVESGGGVVQPGRSLRLSCAASGFTLSYYGMHWVRQAPGKGLEWVAAISHDGSDKYYADSVKGRFTISRDNSKNRLYLQMNSLRAEDTAVYYCSNDQFDPWGQGTLVTVSSR
notes: as for B2
For the molecule B4, in test [1], the Kd was < 1 nM, the koff was found to be 0.0003 s⁻¹ and the kon was 980000 M⁻¹ s⁻¹. In test [2], this molecule had a dissociation constant Kd of 72 nM, a koff of 0.0074 s⁻¹ and a kon of 100000 M⁻¹ s⁻¹. Also, in test [3], the Kd was < 1 nM, the koff was determined as 0.00021 s⁻¹ and the kon worked out at 1.1e+06 M⁻¹ s⁻¹. Also, in test [4], the “EC50 (read off the curve)” value fell in the range of 1 to 2 nM.
